± gives the uncertainty stated by the source.
B1: Cytoplasmic polyadenylation element-binding protein 2, residues 513 to 575; numbered along this chain, Q7Z5Q1 (parent)
chain: KRVEVKPYVLDDQMCDECQGARCGGKFAPFFCANVTCLQYYCEFCWANIHSRAGREFHKPLVK

Variants of: B1
Assay: abundance fitness (aPCA) (normalised: wild type 0, dead -1); higher = more abundant; growth selection in yeast, the domain comes from the species named
Settings: Homo sapiens

In order of rising abundance fitness:
1. KRVEVKPYVLDDQMCDECQGARCGGKFAPFFCANVTCLQYYCEFWWANIHSRAGREFHKPLVK [C45W]  -1.04 ± 0.11
2. KRVEVKPYVLDDQMCDECQGARCGGKFAPFFCANVTCLQYYCEFCWANIYSRAGREFHKPLVK [H50Y]  -0.806 ± 0.13
3. KRVEVKPYVLDDQMCDECQGARCGGKFAPFFCANVTCLPYYCEFCWANIHSRAGREFHKPLVK [Q39P]  -0.799 ± 0.091
4. KRVEVKPYVLDDQMCDECQMARCGGKFAPFFCANVTCLQYYCEFCWANIHSRAGREFHKPLVK [G20M]  -0.756 ± 0.1
5. KRVEVKPYVLDDQMCDEEQGARCGGKFAPFFCANVTCLQYYCEFCWANIHSRAGREFHKPLVK [C18E]  -0.658 ± 0.12
6. KRVEVKPYVLDDQMCDECQGARCGGKFAPFFCANVTCLQPYCEFCWANIHSRAGREFHKPLVK [Y40P]  -0.654 ± 0.079
7. KRVEVKPYVLDDQMRDECQGARCGGKFAPFFCANVTCLQYYCEFCWANIHSRAGREFHKPLVK [C15R]  -0.606 ± 0.057
8. HRVEVKPYVLDDQMCDECQGARCGGKFAPFFCANVTCLQYYCEFCWANIHSRAGREFHKPLVK [K1H]  -0.599 ± 0.23
9. KRVEVKPYVLDDQMCDECQGARCGGKFAPFCCANVTCLQYYCEFCWANIHSRAGREFHKPLVK [F31C]  -0.547 ± 0.082
10. KRVEVKPYVLDDQMCDECQGARCGGKFAPFFCANVTCLQYYCEFCWANIHSRAGREFPKPLVK [H58P]  -0.51 ± 0.1
11. KRVEVKPYVLDDQMCDECQGARCGGKFAPFFCANVTCLQGYCEFCWANIHSRAGREFHKPLVK [Y40G]  -0.474 ± 0.045
12. KRVEVKPYVLDDQMCDECQKARCGGKFAPFFCANVTCLQYYCEFCWANIHSRAGREFHKPLVK [G20K]  -0.403 ± 0.089
13. KRVEVKPYVLDDQMADECQGARCGGKFAPFFCANVTCLQYYCEFCWANIHSRAGREFHKPLVK [C15A]  -0.394 ± 0.062
14. KRVEVYPYVLDDQMCDECQGARCGGKFAPFFCANVTCLQYYCEFCWANIHSRAGREFHKPLVK [K6Y]  -0.382 ± 0.1
15. ARVEVKPYVLDDQMCDECQGARCGGKFAPFFCANVTCLQYYCEFCWANIHSRAGREFHKPLVK [K1A]  -0.32 ± 0.11
16. KRVEVWPYVLDDQMCDECQGARCGGKFAPFFCANVTCLQYYCEFCWANIHSRAGREFHKPLVK [K6W]  -0.315 ± 0.042
17. KRVEVKPYVLDFQMCDECQGARCGGKFAPFFCANVTCLQYYCEFCWANIHSRAGREFHKPLVK [D12F]  -0.312 ± 0.06
18. KRVEVKPYVLDDLMCDECQGARCGGKFAPFFCANVTCLQYYCEFCWANIHSRAGREFHKPLVK [Q13L]  -0.291 ± 0.036
19. KRVEVKPYVLDDQMCDECQGADCGGKFAPFFCANVTCLQYYCEFCWANIHSRAGREFHKPLVK [R22D]  -0.289 ± 0.075
20. KRVEVKPYVLDDQMCDECQGARCGGKFAPFFCANVTCLQYYCEFCWANIHFRAGREFHKPLVK [S51F]  -0.239 ± 0.065
21. KRVVVKPYVLDDQMCDECQGARCGGKFAPFFCANVTCLQYYCEFCWANIHSRAGREFHKPLVK [E4V]  -0.223 ± 0.045
22. KRVEVKPYVLDDQMCDECQGARCGGKFAPFFCANVTCLQSYCEFCWANIHSRAGREFHKPLVK [Y40S]  -0.178 ± 0.051
23. KRVEVKPYVLDDQMCDECQGARCGGKFAPFFCANVTCLQYYCEFCWANIHSRAGTEFHKPLVK [R55T]  -0.165 ± 0.055
24. KRVEVKPYVLDDQMCDECQGARCGGKFAPFFCANVTCLQYYCEFCWANIHSRAGRMFHKPLVK [E56M]  -0.154 ± 0.052
25. KRVEVKPYVLDDQMCDECQGARCGGKFAPFFCANVRCLQYYCEFCWANIHSRAGREFHKPLVK [T36R]  -0.151 ± 0.042
26. KRVEVKPYVLDDQMCDECQGARNGGKFAPFFCANVTCLQYYCEFCWANIHSRAGREFHKPLVK [C23N]  -0.121 ± 0.075
27. KRVEVKPYVLDDQMCDECQGARCGGKNAPFFCANVTCLQYYCEFCWANIHSRAGREFHKPLVK [F27N]  -0.099 ± 0.089
28. KRVEVKPYVLDDQMCDECQGARCGGKFAPFFCANVTCVQYYCEFCWANIHSRAGREFHKPLVK [L38V]  -0.094 ± 0.038
29. KRVEVKPYVLVDQMCDECQGARCGGKFAPFFCANVTCLQYYCEFCWANIHSRAGREFHKPLVK [D11V]  -0.075 ± 0.034
30. KRVEVKPYVLDDQMCDECQGARSGGKFAPFFCANVTCLQYYCEFCWANIHSRAGREFHKPLVK [C23S]  -0.074 ± 0.035
31. KRVEVAPYVLDDQMCDECQGARCGGKFAPFFCANVTCLQYYCEFCWANIHSRAGREFHKPLVK [K6A]  -0.045 ± 0.038
32. KRVEVKPYTLDDQMCDECQGARCGGKFAPFFCANVTCLQYYCEFCWANIHSRAGREFHKPLVK [V9T]  -0.036 ± 0.062
33. KQVEVKPYVLDDQMCDECQGARCGGKFAPFFCANVTCLQYYCEFCWANIHSRAGREFHKPLVK [R2Q]  -0.028 ± 0.071
34. KRVEVKPYVLDDQMCDECQGARCGGKRAPFFCANVTCLQYYCEFCWANIHSRAGREFHKPLVK [F27R]  -0.014 ± 0.047
35. KRVEVKPYVLDDRMCDECQGARCGGKFAPFFCANVTCLQYYCEFCWANIHSRAGREFHKPLVK [Q13R]  0.003 ± 0.04
36. KRVEVKPYVLDDQMCDECQGARCGGKFAPFFCTNVTCLQYYCEFCWANIHSRAGREFHKPLVK [A33T]  0.021 ± 0.062
37. KRVEVKPYVLDDQMCDECQGARCGGKFAPFFCANVTCLQYLCEFCWANIHSRAGREFHKPLVK [Y41L]  0.039 ± 0.039
38. KRVEVKPYVTDDQMCDECQGARCGGKFAPFFCANVTCLQYYCEFCWANIHSRAGREFHKPLVK [L10T]  0.045 ± 0.038
39. KRVEVKPYVLDDQMCDECQGARCGGKFAPFFCANVTCRQYYCEFCWANIHSRAGREFHKPLVK [L38R]  0.056 ± 0.041
40. KRVEVKPYVLDDQMCDECQGARCGGKKAPFFCANVTCLQYYCEFCWANIHSRAGREFHKPLVK [F27K]  0.084 ± 0.059
41. KRVEVKPYVLDDQMCDECQGARCGGKFAPFFCANVTCLQYYCEFCWANIHSRAGRECHKPLVK [F57C]  0.098 ± 0.064
42. KRVEVKPYVLDDQMCDECQGARCGGKFAPFFCANVTCLQYYCEFCWDNIHSRAGREFHKPLVK [A47D]  0.102 ± 0.06
43. KRVEVKPYVLDDQMCDECQGARCGGKFAPFFCANVTCLQYYCEFCWAEIHSRAGREFHKPLVK [N48E]  0.104 ± 0.088

From the Human Domainome abundance scans (Beltran et al. 2025)
